{
  "source": "patent US20260029420A1",
  "about": "“ANTI-CB2 ANTIBODIES AND THEIR USE IN A FLOW CYTOMETRY ASSAY TO MEASURE CELL SURFACE CB2 EXPRESSION” (Hoffmann-La Roche Inc., priority 2022, published 2026)",
  "key": {"CHODukx CRE hCB1 Cl.20 [1]": {"target": "T1, CHODukx CRE hCB1 Cl.20 (Homo sapiens, UniProt P21554)", "T1 construct": "expressed in transfected cells", "T1 sequence (P21554 whole entry)": "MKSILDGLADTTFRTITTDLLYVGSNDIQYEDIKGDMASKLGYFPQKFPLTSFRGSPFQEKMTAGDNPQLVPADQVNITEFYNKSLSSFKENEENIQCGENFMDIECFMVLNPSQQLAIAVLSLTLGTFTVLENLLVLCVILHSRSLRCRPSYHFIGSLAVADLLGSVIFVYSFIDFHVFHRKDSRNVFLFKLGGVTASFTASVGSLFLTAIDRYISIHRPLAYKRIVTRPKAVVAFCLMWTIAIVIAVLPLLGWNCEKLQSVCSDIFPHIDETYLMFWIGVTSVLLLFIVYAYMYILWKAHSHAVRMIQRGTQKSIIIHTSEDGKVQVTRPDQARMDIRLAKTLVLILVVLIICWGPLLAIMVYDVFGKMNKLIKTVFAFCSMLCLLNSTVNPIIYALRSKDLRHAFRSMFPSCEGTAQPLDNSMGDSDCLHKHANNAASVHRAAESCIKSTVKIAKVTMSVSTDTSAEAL", "experiment": "Immunofluorescence on methanol-fixed transfected cells", "assay_type": "binding", "set-up": "key to immunofluorescence signal intensity: “−” no fluorescence detected; “+”-“++++” intensity of fluorescent signal; “+”-“++++” intensity of fluorescent signal; “+”-“++++” intensity of fluorescent signal; “+”-“++++” intensity of fluorescent signal", "experimental": "(§1) The positive clones (Table 1) were further characterized by immunofluorescence (IF; Table 2), Western Blot (Table 3, 1) and Immune precipitation (Table 4, 2) on full length hCB2, hCB1, mCB2 stable-transfected CHO-cell lines in addition to the 2 pANITA constructs.\n(§2) For IF analysis, methanol-fixed cells were incubated for 20 min in a humid chamber at 37° C. with the respective hCB2 and mCB2 clones. After rinsing twice and washing for 15 min in PBS, 125 μg/ml FITC-conjugated […] anti-mouse IgG antibodies (RAM/IgG (H+L)/FITC, Nordic\n(§3) Immunological Laboratories) diluted in PBS was added and incubated for 20 min in a humid chamber at 37° C. Cells were rinsed twice and washed for 15 min in PBS, mounted with mounting solution (50% PBS 50% glycerol) and covered with a coverslip. Staining was assessed by fluorescence microscopy on a Leica CTR500 fluorescence microscope and a Leica DFC300 FX digital camera."}, "CHODukx CRE hCB2 Cl.90": {"target": "T2, CHODukx CRE hCB2 Cl.90 (Homo sapiens, UniProt P34972)", "T2 construct": "expressed in transfected cells", "T2 sequence (P34972 whole entry)": "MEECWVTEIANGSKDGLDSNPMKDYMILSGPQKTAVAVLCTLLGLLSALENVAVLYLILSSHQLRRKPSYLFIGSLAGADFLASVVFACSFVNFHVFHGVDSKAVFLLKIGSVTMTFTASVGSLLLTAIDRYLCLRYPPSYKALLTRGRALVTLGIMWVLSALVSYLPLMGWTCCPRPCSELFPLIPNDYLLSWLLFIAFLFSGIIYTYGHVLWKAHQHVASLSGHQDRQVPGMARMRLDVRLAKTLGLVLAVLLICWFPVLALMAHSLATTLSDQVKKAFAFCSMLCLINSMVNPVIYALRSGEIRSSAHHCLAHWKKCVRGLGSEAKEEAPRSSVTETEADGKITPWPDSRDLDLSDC", "experiment": "Immunofluorescence on methanol-fixed transfected cells", "assay_type": "binding", "set-up": "key to immunofluorescence signal intensity: “−” no fluorescence detected; “+”-“++++” intensity of fluorescent signal; “+”-“++++” intensity of fluorescent signal; “+”-“++++” intensity of fluorescent signal; “+”-“++++” intensity of fluorescent signal", "experimental": "as §1, §2, §3"}, "CHODukx negative": {"system": "CHODukx negative", "experiment": "Immunofluorescence on methanol-fixed cells, negative control", "assay_type": "binding", "set-up": "key to immunofluorescence signal intensity: “−” no fluorescence detected; “+”-“++++” intensity of fluorescent signal; “+”-“++++” intensity of fluorescent signal; “+”-“++++” intensity of fluorescent signal; “+”-“++++” intensity of fluorescent signal", "experimental": "as §1, §2, §3"}, "[2]": {"system": "pANITA3.1 ratGIPR (DB388)", "experiment": "Western blot of cell lysates", "assay_type": "binding, rat", "set-up": "key to Western Blot signal intensity: “−” no signal; “+”-“+++++” signal intensity; “+”-“+++++” signal intensity; “+”-“+++++” signal intensity; “+”-“+++++” signal intensity; “+”-“+++++” signal intensity", "experimental": "as §1\nFor Western blot analysis, cells were collected using enzyme free dissociation buffer (Cell dissociation buffer enzyme-free Hanks'-based, Gibco), and washed two times with PBS. To prepare cell lysate, 10^6 cells were lysed with 0.1 ml of lysis buffer (1% NP40, 10% glycerol, 2 mM EDTA, 137 mM NaCl, 20 mM TrisHCl, pH8, Protease Inhibitors) for 10 min on ice. The lysate was cleared by centrifugation at 20′000 g for 5 min. For SDS-PAGE cell lysate was resolved on precast 4-12% gradient gels (NuPAGE® Novex 4-12% Bis-Tris Gel, Invitrogen) with MES running buffer according to the manufacturer's directions. The separation of proteins was visualized by Colloidal Blue staining. The proteins were electrophoretically transferred to nitrocellulose membrane using a dry-blotting system (iBlot, Invitrogen). After blocking the membrane for 16 h in blocking buffer (5% Milk in PBS) at 4° C., specific proteins were detected with appropriate dilutions of mAbs in blocking buffer for 1 h at approximately 20° C. […]"}, "CHO-A2 mCB2": {"target": "T3, CHO-A2 mCB2 (Mus musculus, UniProt P47936)", "T3 construct": "expressed in transfected cells", "T3 sequence (P47936 whole entry)": "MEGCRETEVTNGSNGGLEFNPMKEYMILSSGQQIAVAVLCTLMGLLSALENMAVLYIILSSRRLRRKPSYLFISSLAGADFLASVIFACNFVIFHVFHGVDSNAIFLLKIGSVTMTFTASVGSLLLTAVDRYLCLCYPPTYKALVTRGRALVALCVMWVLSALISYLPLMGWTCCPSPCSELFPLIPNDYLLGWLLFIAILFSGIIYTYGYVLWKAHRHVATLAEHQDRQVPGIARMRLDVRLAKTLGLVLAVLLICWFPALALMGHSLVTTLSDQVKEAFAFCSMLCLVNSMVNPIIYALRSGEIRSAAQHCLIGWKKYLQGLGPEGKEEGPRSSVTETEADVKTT", "experiment": "Immunoprecipitation from whole cell lysates", "assay_type": "binding", "set-up": "key: “−” no signal; “+”-“+++++” signal intensity; “+”-“+++++” signal intensity; “+”-“+++++” signal intensity; “+”-“+++++” signal intensity; “+”-“+++++” signal intensity", "details": "CHO-A2 mCB2 lysate", "experimental": "as §1\n(§4) For immunoprecipitation (IP), whole cell lysates were incubated with the respective antibodies. IP was performed according to established protocols and subsequent western blot as described herein above."}, "CHODukx CRE hCB1 Cl.20 [3]": {"target": "T1, CHODukx CRE hCB1 Cl.20", "experiment": "Immunoprecipitation from whole cell lysates", "assay_type": "binding", "set-up": "key: “−” no signal; “+”-“+++++” signal intensity; “+”-“+++++” signal intensity; “+”-“+++++” signal intensity; “+”-“+++++” signal intensity; “+”-“+++++” signal intensity", "details": "CHODukx CRE hCB1 Cl.20 lysate", "experimental": "as §1, §4"}, "CHO-DUKX parental cells": {"system": "CHO-DUKX parental cells", "experiment": "Flow cytometry on CHO-DUKX cells", "assay_type": "binding", "source_text": "(§5) FIG. 4: Flow cytometric analysis of hCB2 antibody 1/622 in CHO-DUKX parental and CHO-DUKX_HOMSA_CNR2_Clone_90_CRE-Luc cells transfected with hCB2. For detection an F(ab)2 goat-anti Mouse IgG3 PE antibody was used. The anti-human CB2 antibody 1/622 detects the CB2 in the CHO cells transfected with hCB2 with a signal to background ratio of 10, the CHO-DUKX parental cells are negative."}, "[4]": {"target": "T4, CHO-DUKX_HOMSA_CNR2_Clone_90_CRE-Luc cells transfected with hCB2 (Homo sapiens, UniProt P34972)", "T4 construct": "expressed in transfected cells", "T4 sequence (P34972 whole entry)": "as the sequence (P34972 whole entry) above", "experiment": "Flow cytometry on CHO-DUKX cells", "assay_type": "binding", "details": "transfected vs parental untransfected CHO cells", "source_text": "as §5"}},
  "data": [
    {"molecule": "hCB2-1/622: murine IgG3 monoclonal anti-human CB2 antibody, VH SEQ ID NO: 1, VL SEQ ID NO: 2, HC SEQ ID NO: 3, LC SEQ ID NO: 4 (antibody) heavy: EVQLQQSGPELVKPGASVKISCKTSGYTFTEYTMHWVRQSHGKSLEWIGGIDRYNGDTYYNQKFKDKATLTVDRSSSTAYMELRSLTSEDSAVYFCARNGAMDYWGQGISVTVSSATTTAPSVYPLVPGCSDTSGSSVTLGCLVKGYFPEPVTVKWNYGALSSGVRTVSSVLQSGFYSLSSLVTVPSSTWPSQTVICNVAHPASKTELIKRIEPRIPKPSTPPGSSCPPGNILGGPSVFIFPPKPKDALMISLTPKVTCVVVDVSEDDPDVHVSWFVDNKEVHTAWTQPREAQYNSTFRVVSALPIQHQDWMRGKEFKCKVNNKALPAPIERTISKPKGRAQTPQVYTIPPPREQMSKKKVSLTCLVTNFFSEAISVEWERNGELEQDYKNTPPILDSDGTYFLYSKLTVDTDSWLQGEIFTCSVVHEALHNHHTQKNLSRSPGK light: DVVMTQTPLSLPVSLGDQASISCRSSQSLVHSNGNTYLHWFLQKPGQSPKLLIYKVSIRFSGVPDRFSGSGSGTDFTLKISRVEAEDLGVYFCSQSTHVPPLTFGAGTKLELKRADAAPTVSIFPPSSEQLTSGGASVVCFLNNFYPKDINVKWKIDGSERQNGVLNSWTDQDSKDSTYSMSSTLTLTKDEYERHNSYTCEATHKTSTSPIVKSFNRNEC", "values": [
      {"measurement": "immunofluorescence signal intensity", "setting": "CHODukx CRE hCB1 Cl.20 [1]; CHODukx CRE hCB1 Cl.20 cells", "result": "−"},
      {"measurement": "immunofluorescence staining", "setting": "CHODukx CRE hCB1 Cl.20 [1]; cells expressing human CB1", "result": "no staining"},
      {"measurement": "immunofluorescence signal intensity", "setting": "CHODukx CRE hCB2 Cl.90; CHODukx CRE hCB2 Cl.90 cells", "result": "+++"},
      {"measurement": "immunofluorescence staining", "setting": "CHODukx CRE hCB2 Cl.90; the two cell lines expressing human CB2", "result": "high fluorescent signal intensities"},
      {"measurement": "immunofluorescence signal intensity", "setting": "CHODukx negative; CHODukx negative cells", "result": "−"},
      {"measurement": "immunofluorescence staining", "setting": "CHODukx negative; negative control cells", "result": "no staining"},
      {"measurement": "Western Blot signal intensity", "setting": "[2]; pANITA3.1 ratGIPR (DB388) lysate", "result": "−"},
      {"measurement": "Western blot detection", "setting": "[2]; rat GIPR", "result": "no mCB2, hCB1 or rat GIPR was detected"},
      {"measurement": "Immunoprecipitation signal intensity", "setting": "CHO-A2 mCB2", "result": "−"},
      {"measurement": "Immunoprecipitation signal intensity", "setting": "CHODukx CRE hCB1 Cl.20 [3]", "result": "−"},
      {"measurement": "flow cytometric detection of CB2", "setting": "CHO-DUKX parental cells", "result": "negative"},
      {"measurement": "signal to noise ratio for detection of human CB2", "setting": "[4]", "result": "good signal to noise ratio"}
    ]}
  ]
}
